Assay results reported in the Human Domainome abundance scans (Beltran et al. 2025).
± gives the uncertainty stated by the source.

B1: Kinesin-like protein KIF16B, residues 1213 to 1273; numbered along this chain, Q96L93 (parent)
chain: ETWTVFRRYSRFREMHKTLKLKYAELAALEFPPKKLFGNKDERVIAERRSHLEKYLRDFFS

Variants of: B1
Assay: abundance fitness (aPCA) (normalised: wild type 0, dead -1); higher = more abundant; growth selection in yeast, the domain comes from the species named
Conditions: Homo sapiens
For ETWTVFRRKSRFREMHKTLKLKYAELAALEFPPKKLFGNKDERVIAERRSHLEKYLRDFFS [Y9K], the abundance fitness was -0.056 ± 0.073.
With ETWTVFRRLSRFREMHKTLKLKYAELAALEFPPKKLFGNKDERVIAERRSHLEKYLRDFFS [Y9L] the abundance fitness was 0.063 ± 0.098.
Variant ETWTVFRRMSRFREMHKTLKLKYAELAALEFPPKKLFGNKDERVIAERRSHLEKYLRDFFS [Y9M] has an abundance fitness of 0.163 ± 0.048.
In the case of ETWTVFRRNSRFREMHKTLKLKYAELAALEFPPKKLFGNKDERVIAERRSHLEKYLRDFFS [Y9N], the abundance fitness is reported as 0.091 ± 0.34.
In the case of ETWTVFRRPSRFREMHKTLKLKYAELAALEFPPKKLFGNKDERVIAERRSHLEKYLRDFFS [Y9P], the abundance fitness is reported as 0.129 ± 0.11.
For ETWTVFRRQSRFREMHKTLKLKYAELAALEFPPKKLFGNKDERVIAERRSHLEKYLRDFFS [Y9Q], the abundance fitness was -0.446 ± 0.15.
In the case of ETWTVFRRRSRFREMHKTLKLKYAELAALEFPPKKLFGNKDERVIAERRSHLEKYLRDFFS [Y9R], the abundance fitness is reported as -0.27 ± 0.054.
Variant ETWTVFRRSSRFREMHKTLKLKYAELAALEFPPKKLFGNKDERVIAERRSHLEKYLRDFFS [Y9S] has an abundance fitness of 0.055 ± 0.06.
Work on ETWTVFRRTSRFREMHKTLKLKYAELAALEFPPKKLFGNKDERVIAERRSHLEKYLRDFFS [Y9T] yielded an abundance fitness of -0.201 ± 0.11.
Variant ETWTVFRRVSRFREMHKTLKLKYAELAALEFPPKKLFGNKDERVIAERRSHLEKYLRDFFS [Y9V] has an abundance fitness of 0.019 ± 0.059.
In the case of ETWTVFRRWSRFREMHKTLKLKYAELAALEFPPKKLFGNKDERVIAERRSHLEKYLRDFFS [Y9W], the abundance fitness is reported as 0.076 ± 0.06.
ETWTVFRRYARFREMHKTLKLKYAELAALEFPPKKLFGNKDERVIAERRSHLEKYLRDFFS [S10A] showed an abundance fitness of -0.095 ± 0.065.
ETWTVFRRYCRFREMHKTLKLKYAELAALEFPPKKLFGNKDERVIAERRSHLEKYLRDFFS [S10C] gave an abundance fitness of 0.208 ± 0.13.
ETWTVFRRYDRFREMHKTLKLKYAELAALEFPPKKLFGNKDERVIAERRSHLEKYLRDFFS [S10D] gave an abundance fitness of -0.224 ± 0.22.
ETWTVFRRYERFREMHKTLKLKYAELAALEFPPKKLFGNKDERVIAERRSHLEKYLRDFFS [S10E] gave an abundance fitness of -0.758 ± 0.14.
ETWTVFRRYFRFREMHKTLKLKYAELAALEFPPKKLFGNKDERVIAERRSHLEKYLRDFFS [S10F] gave an abundance fitness of 0.099 ± 0.062.
ETWTVFRRYHRFREMHKTLKLKYAELAALEFPPKKLFGNKDERVIAERRSHLEKYLRDFFS [S10H] showed an abundance fitness of -1.1 ± 0.48.
ETWTVFRRYIRFREMHKTLKLKYAELAALEFPPKKLFGNKDERVIAERRSHLEKYLRDFFS [S10I] gave an abundance fitness of -0.229 ± 0.11.
ETWTVFRRYKRFREMHKTLKLKYAELAALEFPPKKLFGNKDERVIAERRSHLEKYLRDFFS [S10K] gave an abundance fitness of -0.317 ± 0.19.
Work on ETWTVFRRYLRFREMHKTLKLKYAELAALEFPPKKLFGNKDERVIAERRSHLEKYLRDFFS [S10L] yielded an abundance fitness of -0.007 ± 0.074.
In the case of ETWTVFRRYPRFREMHKTLKLKYAELAALEFPPKKLFGNKDERVIAERRSHLEKYLRDFFS [S10P], the abundance fitness is reported as 0.135 ± 0.074.
In the case of ETWTVFRRYQRFREMHKTLKLKYAELAALEFPPKKLFGNKDERVIAERRSHLEKYLRDFFS [S10Q], the abundance fitness is reported as -0.419 ± 0.13.
ETWTVFRRYRRFREMHKTLKLKYAELAALEFPPKKLFGNKDERVIAERRSHLEKYLRDFFS [S10R] showed an abundance fitness of -0.395 ± 0.081.
In the case of ETWTVFRRYTRFREMHKTLKLKYAELAALEFPPKKLFGNKDERVIAERRSHLEKYLRDFFS [S10T], the abundance fitness is reported as 0.136 ± 0.069.
For ETWTVFRRYVRFREMHKTLKLKYAELAALEFPPKKLFGNKDERVIAERRSHLEKYLRDFFS [S10V], the abundance fitness was -0.167 ± 0.06.
In the case of ETWTVFRRYWRFREMHKTLKLKYAELAALEFPPKKLFGNKDERVIAERRSHLEKYLRDFFS [S10W], the abundance fitness is reported as -0.018 ± 0.061.
ETWTVFRRYYRFREMHKTLKLKYAELAALEFPPKKLFGNKDERVIAERRSHLEKYLRDFFS [S10Y] showed an abundance fitness of -0.567 ± 0.13.
Variant ETWTVFRRYSAFREMHKTLKLKYAELAALEFPPKKLFGNKDERVIAERRSHLEKYLRDFFS [R11A] has an abundance fitness of 0.206 ± 0.12.
Work on ETWTVFRRYSCFREMHKTLKLKYAELAALEFPPKKLFGNKDERVIAERRSHLEKYLRDFFS [R11C] yielded an abundance fitness of 0.166 ± 0.13.
Variant ETWTVFRRYSDFREMHKTLKLKYAELAALEFPPKKLFGNKDERVIAERRSHLEKYLRDFFS [R11D] has an abundance fitness of -0.231 ± 0.17.
For ETWTVFRRYSEFREMHKTLKLKYAELAALEFPPKKLFGNKDERVIAERRSHLEKYLRDFFS [R11E], the abundance fitness was -0.487 ± 0.081.
ETWTVFRRYSGFREMHKTLKLKYAELAALEFPPKKLFGNKDERVIAERRSHLEKYLRDFFS [R11G] showed an abundance fitness of -0.03 ± 0.042.
Work on ETWTVFRRYSHFREMHKTLKLKYAELAALEFPPKKLFGNKDERVIAERRSHLEKYLRDFFS [R11H] yielded an abundance fitness of -0.112 ± 0.13.
Work on ETWTVFRRYSLFREMHKTLKLKYAELAALEFPPKKLFGNKDERVIAERRSHLEKYLRDFFS [R11L] yielded an abundance fitness of -0.059 ± 0.06.
Variant ETWTVFRRYSMFREMHKTLKLKYAELAALEFPPKKLFGNKDERVIAERRSHLEKYLRDFFS [R11M] has an abundance fitness of 0.423 ± 0.19.
With ETWTVFRRYSNFREMHKTLKLKYAELAALEFPPKKLFGNKDERVIAERRSHLEKYLRDFFS [R11N] the abundance fitness was -0.122 ± 0.3.
For ETWTVFRRYSPFREMHKTLKLKYAELAALEFPPKKLFGNKDERVIAERRSHLEKYLRDFFS [R11P], the abundance fitness was -0.133 ± 0.13.
Variant ETWTVFRRYSSFREMHKTLKLKYAELAALEFPPKKLFGNKDERVIAERRSHLEKYLRDFFS [R11S] has an abundance fitness of 0.09 ± 0.083.
ETWTVFRRYSTFREMHKTLKLKYAELAALEFPPKKLFGNKDERVIAERRSHLEKYLRDFFS [R11T] showed an abundance fitness of -0.096 ± 0.084.
In the case of ETWTVFRRYSVFREMHKTLKLKYAELAALEFPPKKLFGNKDERVIAERRSHLEKYLRDFFS [R11V], the abundance fitness is reported as 0.246 ± 0.18.
ETWTVFRRYSWFREMHKTLKLKYAELAALEFPPKKLFGNKDERVIAERRSHLEKYLRDFFS [R11W] gave an abundance fitness of 0.205 ± 0.066.
Work on ETWTVFRRYSYFREMHKTLKLKYAELAALEFPPKKLFGNKDERVIAERRSHLEKYLRDFFS [R11Y] yielded an abundance fitness of -0.154 ± 0.29.
With ETWTVFRRYSRAREMHKTLKLKYAELAALEFPPKKLFGNKDERVIAERRSHLEKYLRDFFS [F12A] the abundance fitness was -0.271 ± 0.12.
For ETWTVFRRYSRCREMHKTLKLKYAELAALEFPPKKLFGNKDERVIAERRSHLEKYLRDFFS [F12C], the abundance fitness was -0.164 ± 0.11.
